US10513545B2, “Fusion polypeptide in which anti-inflammatory polypeptide and ferritin monomer fragment are bound and pharmaceutical composition for preventing and treating inflammatory diseases, containing same as active ingredient” (KYUNGPOOK NATIONAL UNIVERSITY INDUSTRY-ACADEMIC COOPERATION …, priority 2015, dated 2019)

B1: TFG: fusion polypeptide: TRAP at N-terminus and PC-Gla at C-terminus of short ferritin monomer fragment, forms nanocage (apparently SEQ ID NO: 14) (protein)
chain: MGGTTFLLRNASGHMSSQIRQNYSTDVEAAVNSLVNLYLQASYTYLSLGFYFDRDDVALEGVSHFFRELAEEKREGYERLLKMQNQRGGRIFLQDIKKPAEDEWGKTPDAMKAAMALEKKLNQALLDLHALGSARTDPHLCDFLETHFLDEEVKLIKKMGDHLTNLHRLGGGSEFVDGGGSGTSANSFLEELRHSSLERECIEEICDFEEAKEIFQNVDDTLAFWSKHVLEHHHHHH
modifications: Fusion polypeptide (1)
B2: TFMG: as TFG with an MMP-2 cleavable linker (GPLGLAG) between ferritin fragment C-terminus and PC-Gla (apparently SEQ ID NO: 15) (protein)
chain: MGGTTFLLRNASGHMSSQIRQNYSTDVEAAVNSLVNLYLQASYTYLSLGFYFDRDDVALEGVSHFFRELAEEKREGYERLLKMQNQRGGRIFLQDIKKPAEDEWGKTPDAMKAAMALEKKLNQALLDLHALGSARTDPHLCDFLETHFLDEEVKLIKKMGDHLTNLHRLGGGSEFVDGGGSGTSGPLGLAGANSFLEELRHSSLERECIEEICDFEEAKEIFQNVDDTLAFWSKHVLEHHHHHH
modifications: Fusion polypeptide (2)

How the values were obtained:
[1] = molecular target: T1, EPCR (Mus musculus, UniProt Q64695); assay: histological analysis of EPCR binding in vivo (mouse vena cava); details: injected intravenously, FIG. 11
T1 construct: from tissue; host or cells: mouse vena cava
T1 sequence (Q64695 18-242): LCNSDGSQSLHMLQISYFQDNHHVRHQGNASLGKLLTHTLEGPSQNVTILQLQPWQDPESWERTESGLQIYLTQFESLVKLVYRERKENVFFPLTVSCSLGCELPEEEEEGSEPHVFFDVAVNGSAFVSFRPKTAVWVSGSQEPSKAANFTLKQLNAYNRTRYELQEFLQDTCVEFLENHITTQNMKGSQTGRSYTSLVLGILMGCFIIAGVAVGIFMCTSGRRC
Description: Twenty-four hours prior to CLP surgery, fluorescence labeled-PC-Gla, TFG, and TFMG (200 nM/mouse) was intravenously injected into the mice, respectively. After 24 h, mouse vena cava was enucleated and fixed in visikol for 24 h. Subsequently, vena cava was embedded in optimum cutting temperature (OCT) compound (Tissue Tek) at −80° C. Consecutive sections were incubated with anti-EPCR antibody (Santa Cruz, Calif.), anti-rabbit Alexa 488 (green), anti-CD31 antibody, and anti-rabbit Alexa 350 (blue), and observed by confocal microscopy at 63× magnification (TCS-SP5, Leica microsystem, Germany).

[2] = tested on: CLP-induced sepsis; assay: H&E staining and histopathological examination of lung in CLP-induced sepsis; assay type: in vivo, mouse; details: for interstitial edema, infiltration of inflammatory cells and damage of pulmonary architecture: 200 nM intravenously 6 h after CLP, lungs 96 h after CLP, FIG. 15; for histopathologic score of pulmonary injury: in comparison with co-administration of PC-Gla and TRAP, FIG. 16
Description: To induce inflammation, male mice were anesthetized with 2% isoflurane (JW Pharmaceutical, Republic of Korea) in oxygen delivered via a small rodent gas anesthesia machine (RC2, Vetequip, Pleasanton, Calif.), first in a breathing chamber and then via a facemask. They were allowed to breathe spontaneously during this procedure. The CLP-induced inflammation model was prepared as previously described. In brief, a 2-cm midline incision was made to expose the cecum and adjoining intestine. The cecum was then tightly ligated with a 3.0-silk suture at 5.0 mm from the cecal tip and punctured once using a 22-gauge needle for the induction of high grade inflammation. It was then squeezed gently to extrude a small amount of feces from the perforation site and returned to the peritoneal cavity. The laparotomy site was then sutured with 4.0-silk. In sham control animals, the cecum was exposed but not ligated or punctured and then returned to the abdominal cavity. This protocol was approved by the Animal Care Committee at Kyungpook National University prior to the conduct of the study (IRP No, KNU 2012-13).
Male C57BL/6 mice underwent CLP and were administered PC-Gla with TRAP, TFG, or TFMG (200 nM) intravenously at 6 h after CLP (n=5). Mice were euthanized 96 h after CLP. To analyze the phenotypic change of the lungs in mice, lung samples were removed from each mouse, washed tree times in PBS (pH 7.4) to remove remaining blood, fixed in 4% formaldehyde solution (Junsei, Tokyo, Japan) in PBS, pH 7.4 for 20 h at 4° C. After fixation, the samples were dehydrated through ethanol series, embedded in paraffin, sectioned into 4-μm sections, and placed on a slide. The slides were de-paraffinized in a 60° C. oven, rehydrated, and stained with hematoxylin (Sigma). To remove over-staining, the slides were quick dipped three times in 0.3% acid alcohol, and counterstained with eosin (Sigma). They are then washed in ethanol series and xylene, and then coverslipped. Light microscopic analysis of lung specimens was performed by blinded observation to evaluate pulmonary architecture, tissue edema, and infiltration of the inflammatory cells. The results were classified into four grades where Grade 1 represented normal histopathology; Grade 2 represented minimal neutrophil leukocyte infiltration; Grade 3 represented moderate neutrophil leukocyte infiltration, perivascular edema formation, and partial destruction of pulmonary architecture; and Grade 4 included dense neutrophil leukocyte infiltration, abscess formation, and complete destruction of pulmonary architecture.

[3] = tested on: LPS-stimulated HUVEC cells; assay: in vitro permeability assay (Evans blue-bound albumin flux); assay type: cell-based, human; details: HUVECs, LPS 100 ng/mL 4 h, up to 100 nM, FIG. 19
Description: For spectrophotometric quantification of endothelial cell permeabilities in response to increasing concentrations of each molecule, the flux of Evans blue-bound albumin across functional cell monolayers was measured using a modified 2-compartment chamber model, as previously described. HUVECs were plated (5×10^4/well) in 12-mm diameter Transwells with a pore size of 3 μm for 3 days. Confluent monolayers of HUVECs were exposed to LPS (100 ng/mL) for 4 h before being subjected to PC-Gla with TRAP, TFG, or TFMG (up to 100 nM). Transwell inserts were then washed with TBS (pH 7.4), followed by the addition of Evans blue (0.5 mL; 0.67 mg/mL) diluted in a growth medium containing 4% BSA. Fresh growth medium was then added to the lower chamber, and the medium in the upper chamber was replaced with Evans blue/BSA. Ten minutes later, the optical density of the sample in the lower chamber was measured at 650 nm.

[4] = tested on: VCAM-1, ICAM-1 and E-selectin on HUVECs; assay: expression of cell adhesion molecules (CAMs), whole-cell ELISA; assay type: cell-based, human; details: LPS 100 ng/mL, FIG. 21A
Description: The expression of vascular cell adhesion molecule-1 (VCAM-1), intercellular adhesion molecule-1 (ICAM-1), and E-selectin on HUVECs were determined by a whole-cell ELISA as described. Briefly, confluent monolayers of HUVECs were treated with PC-Gla with TRAP, TFG, or TFMG for 6 h followed by LPS (100 ng/mL) for 16 h (VCAM-1 and ICAM-1) or 24 h (E-Selectin). After washing, mouse anti-human monoclonal VCAM-1 (100 μM; clone; 6C7.1), ICAM-1 (clone; P2A4) and E-selectin (clone; P3H3) antibodies (Millipore Corporation, 1:50 each) were added. After 1 h (37° C., 5% CO2), the cells were washed three times and then 1:2000 peroxidase-conjugated anti-mouse IgG antibody (100 μl; Sigma) was added for 1 h. The cells were washed again three times and developed using the o-phenylenediamine substrate (Sigma). Colorimetric analysis was performed by measuring absorbance at 490 nm. All measurements were performed in triplicate wells.

[5] = tested on: LPS-stimulated HUVEC cells; assay: cell-cell adhesion assay (leukocytes to HUVEC monolayers); assay type: cell-based, human; details: HUVECs, LPS 100 ng/mL 4 h, FIG. 21B
Description: Adherence of monocytes to endothelial cells was evaluated by fluorescent labeling of monocytes, as previously described. Briefly, monocytes were labeled with 5 μM Vybrant DiD for 20 min at 37° C. in phenol red-free RPMI containing 5% FBS. After washing, the cells (1.5×10^6 cells/mL, 200 μL/well) were resuspended in adhesion medium (RPMI containing 2% fetal bovine serum and 20 mM HEPES). The cells were then added to confluent monolayers of HUVECs in 96-well plates. Prior to the addition of cells, HUVECs were treated PC-Gla with TRAP, TFG, or TFMG for 6 h, followed by treatment with LPS (100 ng/mL, 4 h). Quantification of cell adhesion was determined as previously described.

Row | Molecule | in vivo binding by immunohistochemistry [1] | interstitial edema, infiltration of inflammatory cells and damage of pulmonary architecture [2] | histopathologic score of pulmonary injury [2] | in vitro endothelial cell permeability [3] | LPS-mediated upregulation of CAMs [4] | adhesion of leukocytes [5]
1 | B1 | colocalized with EPCR and CD31 | significantly alleviated | significantly superior effect | alleviated | inhibited | inhibited
2 | B2 | colocalized with EPCR and CD31 | significantly alleviated | significantly superior effect | alleviated | inhibited | inhibited
